Assay [1] concerns Caco-2 cells. As to the kind of experiment: Pressure-induced adhesion of Caco-2 cells transiently expressing GFP-FAK-NT1. The assay is classed as cell-based, human. The conditions noted are these: Caco-2, transient expression, vs GFP control. As for the experimental part:
Caco-2 cells were plated on p100 dishes at 30-35% confluence one day prior to transfection. The constructed or empty plasmids were transfected into Caco-2 cells at final concentrations of 2 μg/ml plasmid and 5 μg/ml Lipofectamine 2000. Five hours after transfection, the medium was replaced with 15 ml pre-warmed Caco-2 media without antibiotics. Forty eight hours after DNA transfection, the cells were trypsinized for adhesion or pull-down experiments.
Experimental pressure conditions were controlled using an airtight box with inlet and outlet valves, thumb screws, a pressure gauge and an O-ring for an airtight (11, 25). The box was prewarmed to 37° C. for 1 hour to […] minimize temperature fluctuations experienced by the cells. […]
100,000 Caco-2 or CT-26 cells were seeded to collagen I coated 6-well plates under ambient or increased pressure conditions for 30 minutes. […] The adherent cells were counted microscopically in at least 20 random high power fields per well under a fluorescent microscope.
To test whether this interaction of NT1 with Akt1 might have biological effects, we evaluated the effect of overexpressing NT1 in Caco-2 cells on the adhesive response to increased extracellular pressure, which requires FAK-Akt1 interaction. […]

Assay [2] relates to CT-26 cells. Nature of the assay: Pressure-induced adhesion of CT-26 cells inducibly expressing GFP-FAK-NT1. The assay is classed as cell-based, murine. As for the experimental part:
A stable CT-26 cell line was generated per ARIAD-ARGENT protocols and GFP-FAK-NT1 expression was induced using 50 nM of the provided non-immunosuppressive rapalog, AP21967 with an equal volume of ethanol used as the control vehicle. Forty eight hours after induction, the cells were trypsinized for adhesion experiments.
Experimental pressure conditions were controlled using an airtight box with inlet and outlet valves, thumb screws, a pressure gauge and an O-ring for an airtight (11, 25). The box was prewarmed to 37° C. for 1 hour to […] minimize temperature fluctuations experienced by the cells. The gas used for pressurization was a filtered 5% CO2/95% air mixture consistent with the atmosphere in which the cells were routinely cultured. The temperature was maintained within ±2° C. and the pressure within ±1.5 mmHg.
100,000 Caco-2 or CT-26 cells were seeded to collagen I coated 6-well plates under ambient or increased pressure conditions for 30 minutes. Non-adherent cells were washed away, and the remainder fixed with 0.01 M NaIO4, 0.75 M lysine, 0.0375 M sodium phosphate buffer, pH 7.4, and 2% paraformaldehyde on ice for 1 hour. The adherent cells were counted microscopically in at least 20 random high power fields per well under a fluorescent microscope. […]

B1: GFP-FAK-NT1: GFP fusion of FAK-NT1 (residues 1-126) expressed transiently or inducibly in cells (protein)
chain: MAAAYLDPNLNHTPNSSTKTHLGTGMERSPGAMERVLKVFHYFESNSEPTTWASIIRHGDATDVRGIIQKIVDSHKVKNVACYGFRLSHLRSEEVHWLHVDMGVSSVREKYELAHPPEEWKYELRI
modifications: left off: large carriers
notes: GFP fusion of FAK-NT1 (residues 1-126) expressed transiently or inducibly in cells
Turning to B1, the Pressure-induced adhesion result in assay [1] (15 mmHg increased pressure 30 minutes) is recorded as “inhibited”. The “Basal levels of adhesion” value in assay [1] (ambient pressure) is listed as “reduced”; in assay [2] (CT26, inducible expression) it was “reduced”. Moreover, the “Stimulation of cell adhesion by increased pressure” value in assay [2] (CT26, expression induced 48 hours before, 15 mmHg 30 minutes, vs GFP control) was “prevented the stimulation of cell adhesion by increased pressure”.
